Legend:
Assay in all cases: purified protein
Details in all cases: HEPES buffer supplemented with zinc; room temperature
[1] = test system: CC(=O)OCC1=C(C(=O)O)N2C(=O)[C@@H](NC(=O)Cc3cccs3)[C@H]2SC1
[2] = test system: CC(C)(O/N=C(\C(=O)N[C@@H]1C(=O)N2C(C(=O)[O-])=C(C[n+]3ccccc3)CS[C@H]12)c1csc(N)n1)C(=O)O
[3] = test system: CC1(C)S[C@@H]2[C@H](NC(=O)Cc3ccccc3)C(=O)N2[C@H]1C(=O)O
[4] = test system: CCN1CCN(C(=O)N[C@@H](C(=O)N[C@@H]2C(=O)N3[C@@H]2SC(C)(C)[C@@H]3C(=O)O)c2ccccc2)C(=O)C1=O
[5] = test system: CO/N=C(\C(=O)N[C@@H]1C(=O)N2C(C(=O)O)=C(COC(C)=O)CS[C@H]12)c1csc(N)n1
[6] = test system: CO/N=C(\C(=O)N[C@@H]1C(=O)N2C(C(=O)[O-])=C(C[N+]3(C)CCCC3)CS[C@H]12)c1csc(N)n1
[7] = test system: CO[C@@]1(NC(=O)Cc2cccs2)C(=O)N2C(C(=O)O)=C(COC(N)=O)CS[C@@H]21
[8] = test system: C[C@@H](O)[C@H]1C(=O)N2C(C(=O)O)=C(SCCN=CN)C[C@H]12
[9] = test system: C[C@@H](O)[C@H]1C(=O)N2C(C(=O)O)=C(S[C@@H]3CN[C@H](C(=O)N(C)C)C3)[C@H](C)[C@H]12
[10] = test system: C[C@@H](O)[C@H]1C(=O)N2C(C(=O)O)=C(S[C@@H]3CN[C@H](C(=O)Nc4cccc(C(=O)O)c4)C3)[C@H](C)[C@H]12
[11] = test system: C[C@H]1[C@H](NC(=O)/C(=N\OC(C)(C)C(=O)O)c2csc(N)n2)C(=O)N1S(=O)(=O)O

## PAN-1 (Pseudobacteriovorax antillogorgiicola)
[1]
  Km: 32.2 µM
  kcat: 6.9 s⁻¹
  kcat/Km: 214000 M⁻¹ s⁻¹
[2]
  Km: 144.4 µM
  kcat: 8.1 s⁻¹
  kcat/Km: 56000 M⁻¹ s⁻¹
[3]
  Km: 161 µM
  kcat: 23.6 s⁻¹
  kcat/Km: 146000 M⁻¹ s⁻¹
[4]
  Km: 1074.2 µM
  kcat: 73.6 s⁻¹
  kcat/Km: 68000 M⁻¹ s⁻¹
[5]
  Km: 245.7 µM
  kcat: 3.9 s⁻¹
  kcat/Km: 16000 M⁻¹ s⁻¹
[6]
  kcat: < 0.01 s⁻¹
[7]
  Km: 13.3 µM
  kcat: 1.9 s⁻¹
  kcat/Km: 143000 M⁻¹ s⁻¹
[8]
  Km: 470.5 µM
  kcat: 43.8 s⁻¹
  kcat/Km: 93100 M⁻¹ s⁻¹
[9]
  Km: 386 µM
  kcat: 22.9 s⁻¹
  kcat/Km: 59000 M⁻¹ s⁻¹
[10]
  Km: 368.5 µM
  kcat: 2.9 s⁻¹
  kcat/Km: 7800 M⁻¹ s⁻¹
[11]
  kcat: < 0.01 s⁻¹

Source: publication PMC6663966
